The labels stand for the following.
B1: C11 mAb (antibody, V domains shown)
VH: EVQLVESGGGLVKPGGSLRLSCAASGFTFSSYSMNWVRQAPGRGLEWVSSISNTSTYIYYADSVEGRFTLSRDNAKNSLYLQMNSLRAEDTAVYYCARANQHFDWLLSLLGGYHYYGMDVWGQGTTVTVSS
VL: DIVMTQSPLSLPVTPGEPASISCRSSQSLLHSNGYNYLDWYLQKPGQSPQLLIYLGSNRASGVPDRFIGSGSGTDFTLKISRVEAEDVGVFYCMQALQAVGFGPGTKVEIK
B2: DH677.3 mAb (antibody, V domains shown)
VH: QVQLVQSGAEVQKPGASVKVSCKASGYTFASYDINWVRQATGQGLEWMGWMNPKTGNTGYAQKFQGRVTLTRNTSISTAYMELTSLRSEDTAVYYCATYRIIAAVGYRYFQYWGQGTLVTVSS
VL: DIQLTQSPSSLSASVGDSVTITCRASQGFGNYLAWYQQRPGKVPEVLIYAATTLQSGVPSRFSGSGSGTDFTLTISSLQPEDVATYYCQKYNSAPFTFGQGTRLEIK
B3: CH55 mAb (antibody, V domains shown)
VH: QVQLVQSGAEVKKPGASVKVSCKASGYIFISYFMHWVRQAPGQGLEWMGIINPSSGDTRYAQKFQGRVTMTRDTSTNTVYMELSSLRSDDTAVYYCARRPGGLERHNWLDPWGQGTLVTVSS
VL: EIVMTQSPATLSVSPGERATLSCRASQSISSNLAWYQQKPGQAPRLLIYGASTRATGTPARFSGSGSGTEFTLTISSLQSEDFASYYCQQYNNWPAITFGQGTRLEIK
B4: A32 mAb (antibody, V domains shown)
VH: QVQLQESGPGLVKPSQTLSLSCTVSGGSSSSGAHYWSWIRQYPGKGLEWIGYIHYSGNTYYNPSLKSRITISQHTSENQFSLKLNSVTVADTAVYYCARGTRLRTLRNAFDIWGQGTMVTVSS
VL: VLTQPPSASGSPGQSVTISCTGTSSDVGGYNYVSWYQHHPGKAPKLIISEVNNRPSGVPDRFSGSKSGNTASLTVSGLQAEDEAEYYCSSYTDIHNFVFGGGTKLTVL
B5: N12-i3 mAb (antibody, V domains shown)
VH: QVQLVQSGAEVKKPGSSVRVSCKASGGSFSRYTVNWVRQAPGQGLEWMARFIPIFNMPDYAPKFQGRITITADESTSTAYLELSSLTSDDTAVYYCASRQHHEYFQEWGQGTLVTVSS
VL: EIVLTQSPGTLSMSPGERATLSCRASRTVSSSNLAWYQQKPGQAPRLLIYDVSSRATGIPDRFSGRGSGTDFTLTISRLEPEDFAVYYCQQYGTSPLTFGGGTKVEIK
B6: CH54 mAb (antibody, V domains shown)
VH: QVQLVQSGPEVKKPGTSMKISCKASGFTFTRSTMQWVRQARGQRLEWIGWIVVGSGNTNYAQKFQERVTITRDMSTSTAYMELSSLRSEDTAVYYCAAAPVGPTSSDYWGQGTLVTVSS
VL: DIQMTQSPSSLSASVGDRVTITCRASQSIINYLNWYQQKPGRAPKLLIYAASSLLSGVPSRFSGSGSGTDFTLTISSLQPEDFATYYCQQSYSTPYTFGQGTKLEIK
B7: C11 Fab (Fab, V domains shown)
VH: EVQLVESGGGLVKPGGSLRLSCAASGFTFSSYSMNWVRQAPGRGLEWVSSISNTSTYIYYADSVEGRFTLSRDNAKNSLYLQMNSLRAEDTAVYYCARANQHFDWLLSLLGGYHYYGMDVWGQGTTVTVSS
VL: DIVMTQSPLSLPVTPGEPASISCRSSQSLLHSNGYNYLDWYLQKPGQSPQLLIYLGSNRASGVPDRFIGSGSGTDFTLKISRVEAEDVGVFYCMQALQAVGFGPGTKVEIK

The target in one assay is full-length monomeric gp120 (clade B, BaL strain) (HIV-1 clade B, strain BaL, UniProt Q2MKA8, strain). Description: flow cytometry on cells. Particulars: one partner purified. For orientation: A flow cytometer gives signals particle by particle.
For the molecule B1, the binding result is listed as “binds”.

For the molecule B2, the binding result is “binds”.

On to B3, for which the binding result is recorded as “binds”.

In the case of B4, the binding result is recorded as “binds”.

Take B5: the binding result is “binds”.

As for B6, the binding result is listed as “binds”.

Another assay has as its target T1, full-length single-chain gp120BaL-CD4 complex (FLSC) (HIV-1 clade B, BaL (gp120 moiety); CD4 …, UniProt Q2MKA8, strain).
T1 construct: also called full-length single-chain protein
The experiment in a line: FRET or BRET + other: fluorescence correlation spectroscopy. Particulars: both partners purified.
In the case of B7, the binding result was “binds”.

Source of the values: article PMC7327165 (mBio, 2020).
